Numbering of substitutions follows the chain as printed. Values belong to the binder of their own block, whether it stands above or below them.
Target: T1, CD25 (R&D systems cat. #223-2A/CF) (UniProt P01589 22-213, limits assumed)
T1 construct: Bought soluble protein
T1 sequence (looked up): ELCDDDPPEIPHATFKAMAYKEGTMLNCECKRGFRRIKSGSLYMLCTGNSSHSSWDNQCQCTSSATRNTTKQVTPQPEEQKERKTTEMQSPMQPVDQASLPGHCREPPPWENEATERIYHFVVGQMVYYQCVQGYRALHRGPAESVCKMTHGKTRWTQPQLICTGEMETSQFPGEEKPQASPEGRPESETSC
Assay: Biacore (SPR); antibody captured on Protein A, CD25 injected
Description: Binding was measured by injection of two-fold serial dilutions of CD25 (0 nM to 50 nM; R&D systems) in buffer at 25° C. with a flow rate of 25-30 μL/min for 2 min followed by a dissociation phase of 4-5 min. Association rates (kₒₙ) and dissociation rates (koff) were calculated using a simple one-to-one Langmuir binding model (BIAcore Evaluation Software version 3.2). The equilibrium dissociation constant (Kd) was calculated as the ratio of koff/kₒₙ).

Fold change in Kd vs. H0L0: -4.2 fold | Kd: 1.1 nM | koff: 0.00048 s⁻¹ | kon: 430000 M⁻¹ s⁻¹
B1: anti-CD25 H1L1.20 (antibody, V domains shown)
VH: QVQLVQSGAEVKKPGASVKVSCKASGYTFTSYRMHWVRQAPGQGLEWMGYINPSTGYTEYNQKFQGRVTITADKSISTAYMELSRLRSDDTAVYYCARGGGVFDYWGQGTLVTVSS
VL: EIVLTQSPATLSLSPGERATLSCRASQSVSYLHWYQQKPGQAPRLLIYTTSNRATGIPARFSGSGSGTDFTLTISSLEPEDFAVYYCHQRSTYPLTFGSGTKLEIK
notes: also called VL combination variant L1.20 paired with H1

Fold change in Kd vs. H0L0: 1.2 fold | Kd: 0.21 nM | koff: 0.00017 s⁻¹ | kon: 790000 M⁻¹ s⁻¹
B2: anti-CD25 H1.14L1.48 (antibody, V domains shown)
VH: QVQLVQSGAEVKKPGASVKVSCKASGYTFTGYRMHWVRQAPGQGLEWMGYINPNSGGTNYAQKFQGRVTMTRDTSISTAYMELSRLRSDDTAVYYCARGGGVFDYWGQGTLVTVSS
VL: B1 VL with L32M

Fold change in Kd vs. H0L0: 1.4 fold | Kd: 0.19 nM | koff: 0.00014 s⁻¹ | kon: 720000 M⁻¹ s⁻¹
B3: anti-CD25 H1.12L1.43 (antibody, V domains shown)
VH: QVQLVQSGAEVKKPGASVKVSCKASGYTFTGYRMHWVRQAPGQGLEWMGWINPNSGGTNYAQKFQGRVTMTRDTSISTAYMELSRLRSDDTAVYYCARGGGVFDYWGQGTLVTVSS
VL: B1 VL with F70Y, E78Q

Fold change in Kd vs. H0L0: 1.1 fold | Kd: 0.24 nM | koff: 0.00018 s⁻¹ | kon: 720000 M⁻¹ s⁻¹
B4: anti-CD25 H1.22L1.20 (antibody, V domains shown)
VH: B1 VH with Y50W, S54N, T55S, Y57G, E59N, N61A, A72R, K74T
VL: B1 VL

Fold change in Kd vs. H0L0: 1.5 fold | Kd: 0.17 nM | koff: 0.00014 s⁻¹ | kon: 780000 M⁻¹ s⁻¹
B5: anti-CD25 H1.22L1.48 (antibody, V domains shown)
VH: B1 VH with Y50W, S54N, T55S, Y57G, E59N, N61A, A72R, K74T
VL: B1 VL with L32M

Fold change in Kd vs. H0L0: -1.1 fold | Kd: 0.3 nM | koff: 0.00019 s⁻¹ | kon: 640000 M⁻¹ s⁻¹
B6: anti-CD25 H1.22L1.43 (antibody, V domains shown)
VH: B1 VH with Y50W, S54N, T55S, Y57G, E59N, N61A, A72R, K74T
VL: B1 VL with F70Y, E78Q

Fold change in Kd vs. H0L0: 1.2 fold | Kd: 0.22 nM | koff: 0.00022 s⁻¹ | kon: 970000 M⁻¹ s⁻¹
B7: anti-CD25 H1.22L1.56 (antibody, V domains shown)
VH: B1 VH with Y50W, S54N, T55S, Y57G, E59N, N61A, A72R, K74T
VL: B1 VL with E1Q, Y35F, A42S, R44Q

Fold change in Kd vs. H0L0: 1.6 fold | Kd: 0.16 nM | koff: 0.00017 s⁻¹ | kon: 1e+06 M⁻¹ s⁻¹
B8: anti-CD25 H1.14L1.56 (antibody, V domains shown)
VH: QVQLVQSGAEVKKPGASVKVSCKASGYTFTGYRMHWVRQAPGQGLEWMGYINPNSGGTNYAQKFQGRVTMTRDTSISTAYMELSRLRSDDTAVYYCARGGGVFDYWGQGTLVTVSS
VL: B1 VL with E1Q, Y35F, A42S, R44Q

Fold change in Kd vs. H0L0: -1.3 fold | Kd: 0.32 nM | koff: 0.00022 s⁻¹ | kon: 670000 M⁻¹ s⁻¹
B9: anti-CD25 H1.14L1.43 (antibody, V domains shown)
VH: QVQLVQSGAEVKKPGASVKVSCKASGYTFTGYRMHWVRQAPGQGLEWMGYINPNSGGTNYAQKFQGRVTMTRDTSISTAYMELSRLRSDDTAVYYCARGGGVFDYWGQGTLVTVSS
VL: B1 VL with F70Y, E78Q

Fold change in Kd vs. H0L0: 1.2 fold | Kd: 0.21 nM | koff: 0.00018 s⁻¹ | kon: 850000 M⁻¹ s⁻¹
B10: anti-CD25 H1.12L1.56 (antibody, V domains shown)
VH: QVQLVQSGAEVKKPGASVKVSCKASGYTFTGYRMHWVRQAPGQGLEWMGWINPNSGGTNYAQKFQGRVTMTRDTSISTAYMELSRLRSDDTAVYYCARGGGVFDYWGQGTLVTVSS
VL: B1 VL with E1Q, Y35F, A42S, R44Q

Fold change in Kd vs. H0L0: 1.2 fold | Kd: 0.22 nM | koff: 0.00016 s⁻¹ | kon: 710000 M⁻¹ s⁻¹
B11: anti-CD25 H1.23L1.20 (antibody, V domains shown)
VH: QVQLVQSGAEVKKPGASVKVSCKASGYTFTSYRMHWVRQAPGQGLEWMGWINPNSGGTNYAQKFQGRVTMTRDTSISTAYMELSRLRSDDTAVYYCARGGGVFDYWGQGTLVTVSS
VL: B1 VL

Fold change in Kd vs. H0L0: -5 fold | Kd: 1.3 nM | koff: 0.0007 s⁻¹ | kon: 540000 M⁻¹ s⁻¹
B12: anti-CD25 H1L1.56 (antibody, V domains shown)
VH: B1 VH
VL: B1 VL with E1Q, Y35F, A42S, R44Q
notes: the fourth VL chain; also called VL combination variant L1.56 paired with H1

Fold change in Kd vs. H0L0: -2.4 fold | Kd: 0.63 nM | koff: 0.00031 s⁻¹ | kon: 500000 M⁻¹ s⁻¹
B13: anti-CD25 H1L1.48 (antibody, V domains shown)
VH: B1 VH
VL: B1 VL with L32M
notes: also called VL combination variant L1.48 paired with H1

Fold change in Kd vs. H0L0: -5 fold | Kd: 1.3 nM | koff: 0.00053 s⁻¹ | kon: 410000 M⁻¹ s⁻¹
B14: anti-CD25 H1L1.43 (antibody, V domains shown)
VH: B1 VH
VL: B1 VL with F70Y, E78Q
notes: also called VL combination variant L1.43 paired with H1
